For 1 substance, 抑制作用 (%) results are on record in patent publication CN113150161A.

The experiment deals with 小菜蛾钙黏蛋白毒素结合区(PxCad-TBR) (小菜蛾 (Plutella xylostella)). The experiment can be described thus: competitive ELISA on coated PxCad-TBR, 500 μg/mL Cry2Aa, competitor 2G4 (3.75 μg/mL, molar ratio 294:1). (ELISA stands for enzyme-linked immunosorbent assay.)

With “活化Cry2Aa毒素(分子量68 kDa) (from UniProt P0A377 50-633)”, the 抑制作用 (%) was determined as 44%.
